Test system: MS2 coat protein
Experiment: apparent KD of MS2 coat protein; designed switch direction (-1 OFF switch, 1 ON switch): -1; higher = weaker reporter binding
Summary of the method: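 Apparent KD, taken as the median over clusters for each design, was obtained by curve-fitting normalised cluster fluorescence. Designed RNA switches had been transcribed on Illumina chips by stalled E. coli RNA polymerase and titrated with SNAP-549-labelled MS2 coat protein, doubling from 0.7 or 1.5 nM to 3 µM.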

[1] = Eterna round: R95, input ligand: FMN 200 uM
[2] = Eterna round: R95, input ligand: microRNA oligo, concentration not stated
[3] = Eterna round: R95, input ligand: none
[4] = input ligand: microRNA oligo, concentration not stated

CGCACACAUGAGGAUCACCCAUGUGAGGAUAUCAUGCUUCGUAGUAAACUACGAAGUGUGAGAAGGCACAUGCA [Omei Ex1 D6] (Eterna round: R97, puzzle: Exclusion 1)
apparent KD of MS2 coat protein (input ligand: FMN 200 uM): 169 nM | apparent KD of MS2 coat protein (input ligand: none): 44.4 nM

GAGGGACAUGAGGAUCACCCAUGUGAGGAUAUGGAGAGGAGGAGGGAGGAGGAGGAGGCCAGAAGGCGCAAGAA [THE BEST I guess] (puzzle: Exclusion 1)
apparent KD of MS2 coat protein [1]: 22.6 nM | apparent KD of MS2 coat protein [2]: 28 nM | apparent KD of MS2 coat protein [3]: 46 nM

CAAGAAAAGAAAGGAUAUAGCGCGGAGCCGCAGCUAGAAGGUUCGGUGGGUAUCCUGUAACAUGAGGAUCACCCAUGUAAAGAG [Texelara] (Eterna round: R96, puzzle: Exclusion NG 1)
apparent KD of MS2 coat protein (input ligand: FMN 200 uM): 499 nM | apparent KD of MS2 coat protein [4]: 109 nM | apparent KD of MS2 coat protein (input ligand: none): 527 nM

UCAUGUUUAGAGGAUAUGAUUACUCUAGAGUGAUCAGAAGGCUAGACAUGAGGAUCACCCAUGUCACAACAUGA [Exclusion 6 - B - 16:c] (puzzle: Exclusion 6)
apparent KD of MS2 coat protein [1]: 73.6 nM | apparent KD of MS2 coat protein [2]: 44.5 nM | apparent KD of MS2 coat protein [3]: 128 nM

GAGCUGUGAGGAUAUACAUGAGGAUCACCCAUGUUAAGGAAGUGGUGUAUAUUGUAGUGUAGAAGGCACUUGUG [JR_Ex3_Sub025] (Eterna round: R97, puzzle: Exclusion 3)
apparent KD of MS2 coat protein (input ligand: FMN 200 uM): 600 nM | apparent KD of MS2 coat protein (input ligand: none): 306 nM

CACCGUUAGCGAGGAUAUCGUACAUGAGGAUCACCCAUGUAAUAAAUGAGAAUUUCGGAUGUAUGCGAGAAGGCGCGAAUCGGC [Ostracism 34 - Jieux - Exclusion NG 2] (Eterna round: R96, puzzle: Exclusion NG 2)
apparent KD of MS2 coat protein [4]: 36.6 nM

AAAUUGUCAGGAUAUUGUUAGUUUAGUUGUUUGUAUUAGUUCGAGAAGGGACAUGAGGAUCACCCAUGUGAAAA [Ex4 #69] (Eterna round: R97, puzzle: Exclusion 4)
apparent KD of MS2 coat protein (input ligand: FMN 200 uM): 38.3 nM | apparent KD of MS2 coat protein (input ligand: none): 41.5 nM

GGUCUUCAAGUCAGGAUAUCGUAUAAUAGAUAUAACGAGAAGGGACAUGAGGAUCACCCAUGUCGUCUCAUCAG [Ex4 #21] (Eterna round: R97, puzzle: Brourd's mod of Exclusion 4)
apparent KD of MS2 coat protein (input ligand: FMN 200 uM): 83.9 nM | apparent KD of MS2 coat protein (input ligand: none): 27 nM

GUCGUGCAGCUUUGCUGUACGAGUACAUGAGGAUCACCCAUGUAGGAUAUGGUACGCUUUGCGUGCUAGAAGGAUAUGUGUAGA [salish99_ExNG3_r04_502] (Eterna round: R96, puzzle: Exclusion NG 3)
apparent KD of MS2 coat protein (input ligand: FMN 200 uM): 53.5 nM | apparent KD of MS2 coat protein [4]: 30.2 nM | apparent KD of MS2 coat protein (input ligand: none): 36.1 nM

AAAAUAAUAAGUUUACGAACAUUUAGAAAAAGGGAUCCAACAUGAGGAUCACCCAUGUAUUAUCAGCAUAAACCCUA [JR_Sensorv2_tov2_Sub1270] (Eterna round: R96, puzzle: Sensor v2, turn-off variant 2)
apparent KD of MS2 coat protein (input ligand: FMN 200 uM): 341 nM | apparent KD of MS2 coat protein [4]: 270 nM | apparent KD of MS2 coat protein (input ligand: none): 360 nM

CUGAAUCGAGGAUAUACAUGAGGAUCACCCAUGUAUACUGUCUUGGUGAGAGUCCCGUGUAGAAGGCGACAGGC [EX3 B.6] (Eterna round: R97, puzzle: Exclusion 3)
apparent KD of MS2 coat protein (input ligand: FMN 200 uM): 60.1 nM | apparent KD of MS2 coat protein (input ligand: none): 35.9 nM

UAGCAUUGCCAAAGGUAGUGCAUUACAUGAGGAUCACCCAUGUAGGAUAUGGUAGGCUUUGCUUACCAGAAGGACAUGAUAAUU [Mat - Exclusion NG 3 - Mod of JL - D15] (Eterna round: R96, puzzle: Exclusion NG 3)
apparent KD of MS2 coat protein (input ligand: FMN 200 uM): 112 nM | apparent KD of MS2 coat protein [4]: 29.6 nM | apparent KD of MS2 coat protein (input ligand: none): 43.1 nM

UGUUGUUACGCAGGAUAUGAGGAUCACCCAUAUCAGGAUAUCGAAAGAGAACUUCUGAGGAUCACCCAGAAGGGCGGGUUAACA [pwkr exNG2 2xF5 2xFMN.38] (Eterna round: R96, puzzle: Exclusion NG 2)
apparent KD of MS2 coat protein (input ligand: FMN 200 uM): 16.9 nM | apparent KD of MS2 coat protein [4]: 13.6 nM | apparent KD of MS2 coat protein (input ligand: none): 21.2 nM

GGACGGAUAGGAUAUACAUGAGGAUCACCCAUGUGAACCCAGCAGAGGCUUCUUUGCAGUAGAAGGGUCCUUUA [Eternabot (Original) Solution 43] (Eterna round: R97, puzzle: Exclusion 3)
apparent KD of MS2 coat protein (input ligand: FMN 200 uM): 53.5 nM | apparent KD of MS2 coat protein (input ligand: none): 47.5 nM

UCCCAACAUGAGGAUCACCCAUGUAAGGAUAUCCAUGGACGACGGCAUUGUUCCCGGCGGAGAAGGUGCAUGGU [EX1 B.21] (Eterna round: R97, puzzle: Exclusion 1)
apparent KD of MS2 coat protein (input ligand: FMN 200 uM): 46.4 nM | apparent KD of MS2 coat protein (input ligand: none): 27.6 nM

UCGGCGCGAGGAUAUACGUUUGCUUUUUUUUGUUUUUGUGUACAUGAGGAUCACCCAUGUAGAAGGCGCGCCGC [Apr-15 SS2-21] (puzzle: Exclusion 2)
apparent KD of MS2 coat protein [2]: 22 nM

AAAUUGGUAGAGGAUAUCGCACAGGAAACACUGCGAGAAGGCUGCACAUGAGGAUCACCCAUGUUCAGUUGCGA [EX6 #38] (Eterna round: R97, puzzle: Exclusion 6)
apparent KD of MS2 coat protein (input ligand: FMN 200 uM): 16.7 nM | apparent KD of MS2 coat protein (input ligand: none): 14.8 nM

AGUCGAAAGACCCACAUGGACAUGAGGAUCACCCAUGUGCAAGCCUUUUGCUCGUCAGCUAGGUCAAAAGACCUAGC [JL Omei mod 1] (Eterna round: R97, puzzle: Sensor, turn-off variant 1)
apparent KD of MS2 coat protein (input ligand: FMN 200 uM): 655 nM | apparent KD of MS2 coat protein (input ligand: none): 813 nM

GUCUCGUCAGGAUAUGACGCUACAUUUUGUUUUUAGAAGAGUCAGAAGGGACAUGAGGAUCACCCAUGUGAUUC [Ex4 - 3 - 1] (puzzle: Exclusion 4)
apparent KD of MS2 coat protein [2]: 257 nM

CAGUUCUGACGGAGAUCCAACAUGAGGAUCACCCAUGUCUCAAAAGCUUUUUGCUCGUCUUAUCCUCCUCAGGACUC [Mat - Sensor, turn-off var - Eli Mod - D58] (Eterna round: R97, puzzle: Sensor, turn-off variant 1)
apparent KD of MS2 coat protein (input ligand: FMN 200 uM): 16.4 nM | apparent KD of MS2 coat protein (input ligand: none): 16.4 nM

AGUACUAACACGAAAGUGUUAGUACAAUAAGCUUGUGAAACAUGAGGAUCACCCAUGUCCUCAUACGCUCGUCUUAU [salish99_TOv2_r3_055] (puzzle: Sensor v3, turn-off variant 2)
apparent KD of MS2 coat protein [1]: 500 nM | apparent KD of MS2 coat protein [2]: 789 nM | apparent KD of MS2 coat protein [3]: 655 nM

AAAGGAUGCCUAGGAUAUUGACGAAGAAAGGAUUAAGAAGGAGGAAAUAUAUGAGGGAUCCACAUGAGGAUCACCCAUGUACAC [Beveinveor] (Eterna round: R96, puzzle: Exclusion NG 1)
apparent KD of MS2 coat protein (input ligand: FMN 200 uM): 538 nM | apparent KD of MS2 coat protein [4]: 458 nM | apparent KD of MS2 coat protein (input ligand: none): 270 nM

AAAUAGUGAGGAUAUUAGUUGUACGUCAAUAGACGUAUAAGUGAGAAGGCACAUGAGGAUCACCCAUGUUCCUG [Omei Ex4 Mod of Mat's R95 mod of Omei v8] (Eterna round: R97, puzzle: Exclusion 4)
apparent KD of MS2 coat protein (input ligand: FMN 200 uM): 34.4 nM | apparent KD of MS2 coat protein (input ligand: none): 18.3 nM

AUAAUGUCAGGAUAUCAGUCGACUAGCCUCGGCUAGUCGACUGAGAAGGGACAUGAGGAUCACCCAUGUGUUUC [E4/14-A2] (Eterna round: R97, puzzle: Exclusion 4)
apparent KD of MS2 coat protein (input ligand: FMN 200 uM): 811 nM | apparent KD of MS2 coat protein (input ligand: none): 569 nM

UUUUAGUCAGGAUAUACAUGAGGAUCACCCAUGUAAACUUUUAGUUUAAUUUGAAUGUGUAGAAGGGACAUUUU [Ex3 #44] (Eterna round: R97, puzzle: Exclusion 3)
apparent KD of MS2 coat protein (input ligand: FMN 200 uM): 34.3 nM | apparent KD of MS2 coat protein (input ligand: none): 25.4 nM

GUGCAGCGAGGAUAUACAGACGGGUCCAGUACGUGUCUUGGACUUGAGGAUCACCCAAGUAGAAGGCGUCUCAG [salish99_ex2_r4_609] (Eterna round: R97, puzzle: Exclusion 2)
apparent KD of MS2 coat protein (input ligand: FMN 200 uM): 35.4 nM | apparent KD of MS2 coat protein (input ligand: none): 36.8 nM

AAUUCGCAAGCGAGAUCCCACAUGAGGAUCACCCAUGUGCUCGUCUUAUAAGGUACUGUGACGAAAGUCACGGUACC [Mat - Sensor, turn-off var - Eli Mod - D85] (Eterna round: R97, puzzle: Sensor, turn-off variant 1)
apparent KD of MS2 coat protein (input ligand: FMN 200 uM): 16.2 nM | apparent KD of MS2 coat protein (input ligand: none): 17.1 nM

AAGAAACAUGAGGAUCACCCAUGUGAGGAUAUGAGAAAGAAAAGAAAAGAAAGAAGACUCAGAAGGCACAAAGG [salish99-ex1_r3_040] (puzzle: Exclusion 1)
apparent KD of MS2 coat protein [1]: 152 nM | apparent KD of MS2 coat protein [2]: 54.7 nM | apparent KD of MS2 coat protein [3]: 120 nM

GUAGAGUAAGGAUAUUGUGAAUAGGAUAGAAUGGUUAGAAGCAAGAAGGUACAUGAGGAUCACCCAUGUAAUGU [Excluse me!!!! 25 - Jieux - Exclusion 4] (puzzle: Exclusion 4)
apparent KD of MS2 coat protein [2]: 23.1 nM

ACUAUACGAGGAUAUACUGACGGGCCUCAGGCAUCCAUCAGACAUGAGGAUCACCCAUGUAGAAGGCGUAUACU [JR_Exc002_Sub408] (Eterna round: R96, puzzle: Exclusion 2)
apparent KD of MS2 coat protein (input ligand: FMN 200 uM): 459 nM | apparent KD of MS2 coat protein [4]: 44.4 nM | apparent KD of MS2 coat protein (input ligand: none): 51.4 nM

AGGUCACAUGAGGAUCACCCAUGUCAGGAUAUCUACAUUGAAGCCUCGGCUUCAAUGUAGAGAAGGGAUAAUUA [E1/8-B2] (Eterna round: R97, puzzle: Exclusion 1)
apparent KD of MS2 coat protein (input ligand: FMN 200 uM): 63.7 nM | apparent KD of MS2 coat protein (input ligand: none): 44.7 nM

UAUUGCAAGUGAGGAUAUGACAUGAGGAUCACCCAUGUAAAGGGAGUUGGCUAUAUAGCAAGAUUUCAGAAGGCACUACUGUAU [JR_ExcNG2_Sub006] (Eterna round: R96, puzzle: Exclusion NG 2)
apparent KD of MS2 coat protein (input ligand: FMN 200 uM): 133 nM | apparent KD of MS2 coat protein [4]: 32.6 nM | apparent KD of MS2 coat protein (input ligand: none): 56.3 nM

UUGUACAUAGGAUAUAGUUGUUUGUACAUGAGGAUCACCCAUGUUAUGUAUCUUUUGCUUCUAGAAGGAUGUUCUU [JR_E5_Sub005] (puzzle: Exclusion 5)
apparent KD of MS2 coat protein [2]: 32.2 nM

AAAUACAAGUAAAGAUCCUACAUGAGGAUCACCCAUGUGCUCGUUUUAUAAAGUACUAUCACGAAAGUGAUAGUACA [Sensor 3, v1 - 23] (puzzle: Sensor v3, turn-off variant 1)
apparent KD of MS2 coat protein [1]: 900 nM | apparent KD of MS2 coat protein [2]: 4.81 nM | apparent KD of MS2 coat protein [3]: 435 nM
